Data: patent US10941182 (Amgen, dated 2021)
Starred links: 1 amine or outer side, 2 acyl side, 3 side chain; linkers in the order of their positions; H or OH if unused. Non-standard residues stand in square brackets, D forms with d. Primed or numbered codes have the meaning given here. *: point of attachment. dBip = N[C@H](Cc1ccc(-c2ccccc2)cc1)C(=O)O; Oic = O=C(O)[C@@H]1C[C@@H]2CCCC[C@@H]2N1; Phe(4-Cl) = N[C@@H](Cc1ccc(Cl)cc1)C(=O)O; dPhe(4-Cl) = N[C@H](Cc1ccc(Cl)cc1)C(=O)O; Heptadecanoyl = CCCCCCCCCCCCCCCCC(=O)*; Phe(4-I) = N[C@@H](Cc1ccc(I)cc1)C(=O)O; γGlu = O=C(O)[C@H](CCC(=O)[*:2])N[*:1]; NMeR = CN[C@@H](CCCNC(=N)N)C(=O)O; Tridecanoyl = CCCCCCCCCCCCC(=O)*; hArg = N=C(N)NCCCC[C@H](N)C(=O)O; Tic = O=C(O)[C@@H]1Cc2ccccc2CN1; Cha = N[C@@H](CC1CCCCC1)C(=O)O; NMeL = CN[C@@H](CC(C)C)C(=O)O; Nle = CCCC[C@H](N)C(=O)O; Pip′ = not defined here; AEEA = NCCOCCOCC(=O)O

T1: human APJ receptor (human, UniProt P35414 1-380)
T1 sequence (looked up): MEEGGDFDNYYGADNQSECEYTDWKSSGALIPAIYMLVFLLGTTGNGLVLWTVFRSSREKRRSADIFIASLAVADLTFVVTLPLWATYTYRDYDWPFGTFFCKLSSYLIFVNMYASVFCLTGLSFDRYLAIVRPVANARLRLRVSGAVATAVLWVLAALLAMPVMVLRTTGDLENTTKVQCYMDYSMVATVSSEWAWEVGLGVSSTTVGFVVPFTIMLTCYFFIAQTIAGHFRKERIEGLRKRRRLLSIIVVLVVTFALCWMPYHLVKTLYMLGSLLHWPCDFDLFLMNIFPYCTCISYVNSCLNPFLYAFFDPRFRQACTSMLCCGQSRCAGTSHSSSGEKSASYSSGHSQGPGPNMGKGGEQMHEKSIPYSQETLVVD

T2: rat APJ receptor (rat, UniProt Q9JHG3 1-377)
T2 sequence (looked up): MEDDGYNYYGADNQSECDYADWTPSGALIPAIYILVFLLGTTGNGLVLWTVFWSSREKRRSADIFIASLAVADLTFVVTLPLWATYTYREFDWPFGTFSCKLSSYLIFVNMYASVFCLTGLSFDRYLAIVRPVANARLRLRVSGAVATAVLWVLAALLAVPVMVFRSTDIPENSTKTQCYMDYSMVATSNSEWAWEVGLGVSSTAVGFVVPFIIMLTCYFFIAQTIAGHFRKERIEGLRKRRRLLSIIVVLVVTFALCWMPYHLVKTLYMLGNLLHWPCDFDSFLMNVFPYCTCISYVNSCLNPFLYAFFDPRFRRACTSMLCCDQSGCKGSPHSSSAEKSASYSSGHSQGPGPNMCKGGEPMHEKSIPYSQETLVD


Assays:
human APJ receptor = molecular target: T1, human APJ receptor; test: cell-based or functional assay
rat APJ receptor = molecular target: T2, rat APJ receptor; test: cell-based or functional assay

Binder	EC50 Human APJ Receptor (human APJ receptor) [nM]	EC50 Rat APJ Receptor (rat APJ receptor) [nM]
Heptadecanoyl-[γGlu][AEEA][AEEA][hArg]Q[dR]P[NMeR][Cha]SHKG[Oic][Nle][Pip′][Phe(4-Cl)]-OH [apelin polypeptide SEQ ID NO: 239]	1.45	8.61
Tridecanoyl-[γGlu][AEEA][AEEA]Q[hArg]P[dR][NMeL]SHKG[Oic][Nle]P[Phe(4-Cl)]-OH (SMILES CCCCCCCCCCCCC(=O)N[C@@H](CCC(=O)NCCOCCOCC(=O)NCCOCCOCC(=O)N[C@@H](CCC(N)=O)C(=O)N[C@@H](CCCCNC(=N)N)C(=O)N1CCC[C@H]1C(=O)N[C@H](CCCNC(=N)N)C(=O)N(C)[C@@H](CC(C)C)C(=O)N[C@@H](CO)C(=O)N[C@@H](Cc1c[nH]cn1)C(=O)N[C@@H](CCCCN)C(=O)NCC(=O)N1[C@H](C(=O)N[C@@H](CCCC)C(=O)N2CCC[C@H]2C(=O)N[C@@H](Cc2ccc(Cl)cc2)C(=O)O)C[C@@H]2CCCC[C@@H]21)C(=O)O) [apelin polypeptide SEQ ID NO: 225]	3.02	47.9
Tridecanoyl-[γGlu][AEEA][AEEA]Q[hArg]P[dR][NMeL]SHKG[Oic][Phe(4-I)]P[Phe(4-Cl)]-OH (SMILES CCCCCCCCCCCCC(=O)N[C@@H](CCC(=O)NCCOCCOCC(=O)NCCOCCOCC(=O)N[C@@H](CCC(N)=O)C(=O)N[C@@H](CCCCNC(=N)N)C(=O)N1CCC[C@H]1C(=O)N[C@H](CCCNC(=N)N)C(=O)N(C)[C@@H](CC(C)C)C(=O)N[C@@H](CO)C(=O)N[C@@H](Cc1c[nH]cn1)C(=O)N[C@@H](CCCCN)C(=O)NCC(=O)N1[C@H](C(=O)N[C@@H](Cc2ccc(I)cc2)C(=O)N2CCC[C@H]2C(=O)N[C@@H](Cc2ccc(Cl)cc2)C(=O)O)C[C@@H]2CCCC[C@@H]21)C(=O)O) [apelin polypeptide SEQ ID NO: 226]	20.8	91
Heptadecanoyl-[γGlu][AEEA][AEEA]Q[dR]P[NMeR][Cha]SHKG[Oic][Nle][Pip′][Phe(4-Cl)]-OH [apelin polypeptide SEQ ID NO: 234]	6.05	12.5
Tridecanoyl-[γGlu][AEEA][AEEA]QRP[hArg][Cha]SHKG[Oic][Phe(4-I)]P[dBip]-OH (SMILES CCCCCCCCCCCCC(=O)N[C@@H](CCC(=O)NCCOCCOCC(=O)NCCOCCOCC(=O)N[C@@H](CCC(N)=O)C(=O)N[C@@H](CCCNC(=N)N)C(=O)N1CCC[C@H]1C(=O)N[C@@H](CCCCNC(=N)N)C(=O)N[C@@H](CC1CCCCC1)C(=O)N[C@@H](CO)C(=O)N[C@@H](Cc1c[nH]cn1)C(=O)N[C@@H](CCCCN)C(=O)NCC(=O)N1[C@H](C(=O)N[C@@H](Cc2ccc(I)cc2)C(=O)N2CCC[C@H]2C(=O)N[C@H](Cc2ccc(-c3ccccc3)cc2)C(=O)O)C[C@@H]2CCCC[C@@H]21)C(=O)O) [apelin polypeptide SEQ ID NO: 223]	11.3	52.8
Tridecanoyl-[γGlu][AEEA][AEEA]QRP[dR][Cha]SHKG[Oic][Phe(4-I)]P[dBip]-OH (SMILES CCCCCCCCCCCCC(=O)N[C@@H](CCC(=O)NCCOCCOCC(=O)NCCOCCOCC(=O)N[C@@H](CCC(N)=O)C(=O)N[C@@H](CCCNC(=N)N)C(=O)N1CCC[C@H]1C(=O)N[C@H](CCCNC(=N)N)C(=O)N[C@@H](CC1CCCCC1)C(=O)N[C@@H](CO)C(=O)N[C@@H](Cc1c[nH]cn1)C(=O)N[C@@H](CCCCN)C(=O)NCC(=O)N1[C@H](C(=O)N[C@@H](Cc2ccc(I)cc2)C(=O)N2CCC[C@H]2C(=O)N[C@H](Cc2ccc(-c3ccccc3)cc2)C(=O)O)C[C@@H]2CCCC[C@@H]21)C(=O)O) [apelin polypeptide SEQ ID NO: 224]	28.2	102
Tridecanoyl-[γGlu][AEEA][AEEA]Q[hArg]P[dR][Cha]SHKG[Oic][Nle]P[Phe(4-Cl)]-OH (SMILES CCCCCCCCCCCCC(=O)N[C@@H](CCC(=O)NCCOCCOCC(=O)NCCOCCOCC(=O)N[C@@H](CCC(N)=O)C(=O)N[C@@H](CCCCNC(=N)N)C(=O)N1CCC[C@H]1C(=O)N[C@H](CCCNC(=N)N)C(=O)N[C@@H](CC1CCCCC1)C(=O)N[C@@H](CO)C(=O)N[C@@H](Cc1c[nH]cn1)C(=O)N[C@@H](CCCCN)C(=O)NCC(=O)N1[C@H](C(=O)N[C@@H](CCCC)C(=O)N2CCC[C@H]2C(=O)N[C@@H](Cc2ccc(Cl)cc2)C(=O)O)C[C@@H]2CCCC[C@@H]21)C(=O)O) [apelin polypeptide SEQ ID NO: 228]	0.484	7.91
Ac-[dR][hArg]Q[hArg]P[dR][NMeL]SHKG[Oic][Phe(4-I)]P[dBip]-OH [apelin polypeptide SEQ ID NO: 18]	0.468	0.523
Heptadecanoyl-[γGlu][AEEA][AEEA]Q[dR]P[NMeR][Cha]SHKG[Oic][Nle]P[Tic]-OH (SMILES CCCCCCCCCCCCCCCCC(=O)N[C@@H](CCC(=O)NCCOCCOCC(=O)NCCOCCOCC(=O)N[C@@H](CCC(N)=O)C(=O)N[C@H](CCCNC(=N)N)C(=O)N1CCC[C@H]1C(=O)N(C)[C@@H](CCCNC(=N)N)C(=O)N[C@@H](CC1CCCCC1)C(=O)N[C@@H](CO)C(=O)N[C@@H](Cc1c[nH]cn1)C(=O)N[C@@H](CCCCN)C(=O)NCC(=O)N1[C@H](C(=O)N[C@@H](CCCC)C(=O)N2CCC[C@H]2C(=O)N2Cc3ccccc3C[C@H]2C(=O)O)C[C@@H]2CCCC[C@@H]21)C(=O)O) [apelin polypeptide SEQ ID NO: 238]	6.68	28.5
Tridecanoyl-[γGlu][AEEA][AEEA][hArg]Q[dR]P[NMeR][Cha]SHKG[Oic][Nle]P[Phe(4-Cl)]-OH (SMILES CCCCCCCCCCCCC(=O)N[C@@H](CCC(=O)NCCOCCOCC(=O)NCCOCCOCC(=O)N[C@@H](CCCCNC(=N)N)C(=O)N[C@@H](CCC(N)=O)C(=O)N[C@H](CCCNC(=N)N)C(=O)N1CCC[C@H]1C(=O)N(C)[C@@H](CCCNC(=N)N)C(=O)N[C@@H](CC1CCCCC1)C(=O)N[C@@H](CO)C(=O)N[C@@H](Cc1c[nH]cn1)C(=O)N[C@@H](CCCCN)C(=O)NCC(=O)N1[C@H](C(=O)N[C@@H](CCCC)C(=O)N2CCC[C@H]2C(=O)N[C@@H](Cc2ccc(Cl)cc2)C(=O)O)C[C@@H]2CCCC[C@@H]21)C(=O)O) [apelin polypeptide SEQ ID NO: 229]	0.235	3.29
Tridecanoyl-[γGlu][AEEA][AEEA]Q[hArg]P[dR][NMeL]SHKG[Oic][Nle]P[dBip]-OH (SMILES CCCCCCCCCCCCC(=O)N[C@@H](CCC(=O)NCCOCCOCC(=O)NCCOCCOCC(=O)N[C@@H](CCC(N)=O)C(=O)N[C@@H](CCCCNC(=N)N)C(=O)N1CCC[C@H]1C(=O)N[C@H](CCCNC(=N)N)C(=O)N(C)[C@@H](CC(C)C)C(=O)N[C@@H](CO)C(=O)N[C@@H](Cc1c[nH]cn1)C(=O)N[C@@H](CCCCN)C(=O)NCC(=O)N1[C@H](C(=O)N[C@@H](CCCC)C(=O)N2CCC[C@H]2C(=O)N[C@H](Cc2ccc(-c3ccccc3)cc2)C(=O)O)C[C@@H]2CCCC[C@@H]21)C(=O)O) [apelin polypeptide SEQ ID NO: 227]	8.77	97.5
Heptadecanoyl-[γGlu][AEEA][AEEA][dQ][hArg]P[NMeR][Cha]SHKG[Oic][Nle]P[dPhe(4-Cl)]-OH (SMILES CCCCCCCCCCCCCCCCC(=O)N[C@@H](CCC(=O)NCCOCCOCC(=O)NCCOCCOCC(=O)N[C@H](CCC(N)=O)C(=O)N[C@@H](CCCCNC(=N)N)C(=O)N1CCC[C@H]1C(=O)N(C)[C@@H](CCCNC(=N)N)C(=O)N[C@@H](CC1CCCCC1)C(=O)N[C@@H](CO)C(=O)N[C@@H](Cc1c[nH]cn1)C(=O)N[C@@H](CCCCN)C(=O)NCC(=O)N1[C@H](C(=O)N[C@@H](CCCC)C(=O)N2CCC[C@H]2C(=O)N[C@H](Cc2ccc(Cl)cc2)C(=O)O)C[C@@H]2CCCC[C@@H]21)C(=O)O) [apelin polypeptide SEQ ID NO: 237]	4.96	4.89
Tridecanoyl-[γGlu][AEEA][AEEA]QRP[hArg][NMeL]SHKG[Oic][Phe(4-I)]P[dBip]-OH (SMILES CCCCCCCCCCCCC(=O)N[C@@H](CCC(=O)NCCOCCOCC(=O)NCCOCCOCC(=O)N[C@@H](CCC(N)=O)C(=O)N[C@@H](CCCNC(=N)N)C(=O)N1CCC[C@H]1C(=O)N[C@@H](CCCCNC(=N)N)C(=O)N(C)[C@@H](CC(C)C)C(=O)N[C@@H](CO)C(=O)N[C@@H](Cc1c[nH]cn1)C(=O)N[C@@H](CCCCN)C(=O)NCC(=O)N1[C@H](C(=O)N[C@@H](Cc2ccc(I)cc2)C(=O)N2CCC[C@H]2C(=O)N[C@H](Cc2ccc(-c3ccccc3)cc2)C(=O)O)C[C@@H]2CCCC[C@@H]21)C(=O)O) [apelin polypeptide SEQ ID NO: 222]	1.23	6.87
